Biological target: USP22 (ubiquitin-specific protease 22) (UniProt Q9UPT9)
Assay: co-IP of myc-MYH9 and Flag-USP22
Settings: reference: wild-type MYH9; sites S1943

binding against the reference: lost
Substance: MYH9 (non-muscle myosin heavy chain 9) (from UniProt P35579) MYH9-S1943A

Reference: publication PMC11412978
